From publication doi:10.64898/2025.12.17.694860, “Structural basis for the inhibition of Trypanosoma brucei enolase by a camelid single-domain antibody” (bioRxiv, 2025)

Columns and labels:
[1] = target: T1, Trypanosoma brucei enolase (Trypanosoma brucei (sequence identical …)); assay: SEC; details: both partners purified
T1 construct: Enolase (phosphopyruvate hydratase) of Trypanosoma brucei; printed MM = 48.4 kDa; Homodimer by analytical SEC and in the crystal; also called TbrENO; T. brucei enolase; source: E. coli, purified (IMAC, SEC); not shown: His tag, N-terminal, kept

[2] = target: T1, Trypanosoma brucei enolase; assay: ITC; details: both partners purified

B1: sdAbR1-10 (VHH)
VHH: QVQLQESGGGLVQPGGSLRLSCAAPGSIFSIFSGNIMGWYRQAPGKQRDFVASISSGGATNYADSVKGRFTISRDNAKNTVYLQMNNLKPEDTAVYYCNTVGGVHTNSWGQGTQVTVSS
[1]
  stoichiometry N: 2 sdAbR1-10 per TbrENO dimer
[2]
  Kd: ~20 nM
  stoichiometry N: ~1 sdAbR1-10 per TbrENO monomer
